We go through 32 sequences from the supplement of paper PMC10201428.

± gives the standard deviation of the averaged measurements. Where only a bound is given, the exact number is not on record here.

The series has as its system VchCAST RNA-guided transposition machinery (E. coli BL21(DE3) host, lacZ target). Briefly: relative integration efficiency (T-LR orientation) vs wild-type transposon end (log2 (normalized fold change)); transposon end mutated: right end (5 bp flank + 75 bp right end); higher = more efficient transposition. In short, it runs like this: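 Pools of 1549 left-end or 1849 right-end barcoded transposon variants were cloned into a pUC57 mini-transposon donor and co-transformed into E. coli BL21(DE3) with a T7-driven effector plasmid carrying a CRISPR array, tniQ-cas8-cas7-cas6 and tnsA-tnsB-tnsC. Plating used 0.1 mM IPTG at 37°C for 18 h, and input plasmids and genomic integration junctions were PCR-amplified for Illumina sequencing, with two biological output replicates and four reference barcodes. Relative integration efficiency is the log-transformed fold change of output over input barcode abundance, normalised to the reference barcodes.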
Take “ACATTTGTTGATACCACCATCAAATGATAATTCCACCCATAAATTGATAATTATCACACCCAATTTAACTATAACGCTCTGATCATAGTCAGACCAACATTGCTACGACCCGTATTCGCACCGACAC”: the “relative integration efficiency (log2)” value was found to be 1.36 ± 0.27.
“ACATTTGTTGATACAACCATAAAATGATAATTACACCCATAAATTGATAATTATCACACCCATAAATTGATATTGCCTCTGTACCGTTCGTATACGATACATTATACGAAGTTATTCGCACCGACAC”: the “relative integration efficiency (log2)” value was 1.66 ± 0.14.
Turning to “ACATTTGTTGATACAACCATAAAATGATAATTACAACCATAAGTTGATATTTTTCACAACCATAAGTTGATATTTTCTCTGATCATAGTCAGACCAACATTGCTACGACCCGTATTCGCACCGACAC”, the “relative integration efficiency (log2)” value is -0.201 ± 0.37.
In the case of “ACATTTGTTGATACAACCATAAAATGCGAATTACACCCATAAATTGATAATTATCACACCCATAAATTGATATTGCCTCTGATCATAGTCAGACCAACATTGCTACGACCCGTATTCGCACCGACAC”, the “relative integration efficiency (log2)” value is -0.35 ± 0.095.
As to “ACATTTGTTGATACAACCAATAAATGATAATTACACCCATAAATTGATAATGATGACACCGAATTTAACTATAACGCTCTGATCATAGTCAGACCAACATTGCTACGACCCGTATTCGCACCGACAC”, the “relative integration efficiency (log2)” value came out at 1.92 ± 0.035.
As to “ACATTTGTTGATACAACCATAAAGTGATATTTACACCCATAAATTGATATTGCTCAGTGGGTATTTAACTATAACGCTCTGATCATAGTCAGACCAACATTGCTACGACCCGTATTCGCACCGACAC”, the “relative integration efficiency (log2)” value stood at 2.56 ± 0.28.
Regarding “ACATTTGTTGATACAACCATAAAATGATAATTACACCCATAAATGGATTATTATCACACCCAATTTAACTATAACGCTCTGATCATAGTCAGACCAACATTGCTACGACCCGTATTCGCACCGACAC”, the “relative integration efficiency (log2)” value was 0.865 ± 0.44.
For “ACATTTGTCGATACAACCATAAAATGATAATTCACCCATCAATTGATAATTATCACACCCCAATTTAACTATAACGCTCTGATCATAGTCAGACCAACATTGCTACGACCCGTATTCGCACCGACAC”, the “relative integration efficiency (log2)” value came to 0.029 ± 0.092.
Regarding “ACATTTGTTGATACAACCATAAAATGATAATTACACCCATAAATTGATAATTATCACACCCATAAATTGATATTGCCTCTGATCATGGTGTCTCGCTTCAGCAGTCAGACCAACATTGCACCGACAC”, the “relative integration efficiency (log2)” value was -0.507 ± 0.025.
On to “ACATTTGTTGATACAACCATAAAATGATAATTAATAATTATTTATAATCAGCAACACCCATAAATTGATAATTATCAACAAACGCCCGGTCGCGGTACTCTGATCATAGTCAGACCAACATTGCTAC”, for which the “relative integration efficiency (log2)” value was 0.0215 ± 0.36.
“ACATTTGTTGATACAACCATAAAATGATAATTACTCTGATCATAGTCAGACCAACATTGCTACGACCCGTATTCGCACCGACACACCCATAAATTGATAATTATCACACCCATAAATTGATATTGCC”: the “relative integration efficiency (log2)” value worked out at 0.795 ± 0.3.
As for “ACATTTGTTCATACAACCATAAAATGATAATTACACCCATAAATTCATAATTATCACACCCAATTTAACTATAACGCTCTGATCATAGTCAGACCAACATTGCTACGACCCGTATTCGCACCGACAC”, the “relative integration efficiency (log2)” value is -0.697 ± 0.075.
In the case of “ACATTTGTAAAAAAAACCATACGTTGATTTTACGAAACCATACGCTGAAATAAAAACAACCATACCTTGAAATTGCTTATAAAGTGTACAACACTTGAGAAAGTTTACTACAGGTATGCACCGACAC”, the “relative integration efficiency (log2)” value was less than -10.
For the sequence “ACATTTGTTGATACAACCATAAAATGATAATTACACCCATAAATTGATAATTATCACACCCATAAATTGATATTGCCTCTGATCATAGTCAGATGAATTTTTATGCAAAGACCAACAGCACCGACAC”, the “relative integration efficiency (log2)” value is 0.652 ± 0.2.
Then “ACATTTGTTGATACAACCATATATTGATATCTCCAACCATAAAATGATAATTATCAGTGGGTATTTAACTATAACGCTCTGATCATAGTCAGACCAACATTGCTACGACCCGTATTCGCACCGACAC”, with 2.32 ± 0.29; and “ACATTTGTTGATACACCCATAAATTGATAATTACAACCATATATTGATATCTCTCACACCCATAAATTGATATTGCCTCTGATCATAGTCAGACCAACATTGCTACGACCCGTATTCGCACCGACAC”, with -0.339 ± 0.29; and “ACATTTGTTGATACAACCATAAAATGATAATTACAACCATAAAGTGATATTTATCACAACCATAAGTTGATATTTTCTCTGATCATAGTCAGACCAACATTGCTACGACCCGTATTCGCACCGACAC”, with -0.251 ± 0.14.
With “ACATTTGTTGATACAACCATAAAATGATAATTACACCCATAAATTGATAATTTCACACCCATAAATTGATATTGCCTCTGATCATAGTCAGACCAACATTGCTACGACCCGTATTCGCACCGACACT” the figure was 0.745 ± 0.092; with “ACATTAGTGGATACAACCATAAAATGATAATTACACCCATAAATTGATCATTATCACACCCAATTTAACTATAACGCTCTGATCATAGTCAGACCAACATTGCTACGACCCGTATTCGCACCGACAC”, -5.22 ± 1.2.
With “ACATTTGTTGATACAACCATAAAATGATAATTACACCCATAAATTGATAATTATCACACCCATAAATTGATATTGCCTCTGATCAAATTGTGAGCGGATAACAATTTAGTCAGACCAGCACCGACAC”, the “relative integration efficiency (log2)” value amounted to 0.00708 ± 0.62.
With “ACATTTGTTGATACAACCATAAAATGATAATTAATAATTATTTATAATCCACCCATAAATTGATAATTATCACACCCATAAATTGATATTGCCTCTGATCATAGTCAGACCAACATTGCTACGACCC” the figure was 0.382 ± 0.22; with “ACATTTGTCGATACAACCATAAAATGATAATTACACCCATAAATTGATCATTATCACACCCAATTTAACTATAACGCTCTGATCATAGTCAGACCAACATTGCTACGACCCGTATTCGCACCGACAC”, 2.328 ± 0.013; with “ACATTTGTTGATACCACCATCAAATGGTAATTACACCCATAAATTGATAATTATCACACCCAATTTAACTATAACGCTCTGATCATAGTCAGACCAACATTGCTACGACCCGTATTCGCACCGACAC”, 0.203 ± 0.17.
On to “ACATTTGTTGATACAACCATAAAATGAGCATTACACCCATAAATTGATAATTATCACACCCATAAATTGATATTGCCTCTGATCATAGTCAGACCAACATTGCTACGACCCGTATTCGCACCGACAC”, for which the “relative integration efficiency (log2)” value is -0.621 ± 0.017.
In the case of “ACATTTGTTGATACAACCATAAAATGATAATTACACCCATTAATTGATAATTGTGACACCGAATTTAACTATAACGCTCTGATCATAGTCAGACCAACATTGCTACGACCCGTATTCGCACCGACAC”, the “relative integration efficiency (log2)” value was 2.21 ± 0.16.
As to “ACATTAGTGGATACAACCATAAAATGATAATTACACCCATAAATTCATAATTATCACACCCAATTTAACTATAACGCTCTGATCATAGTCAGACCAACATTGCTACGACCCGTATTCGCACCGACAC”, the “relative integration efficiency (log2)” value is -5.23 ± 1.8.
Then “ACATTTGTTGATACAACCATATATTGATATCTCCAACCATAAAATGATAATTATCACAACCATATATTGATATCTCCTCTGATCATAGTCAGACCAACATTGCTACGACCCGTATTCGCACCGACAC”, with -0.283 ± 0.24.
Consider “ACATTTGTTGATACAACCATAAAATGATAATTACACCCATAAATTGAGCCGTATCACACCCATAAATTGATATTGCCTCTGATCATAGTCAGACCAACATTGCTACGACCCGTATTCGCACCGACAC”, for which the “relative integration efficiency (log2)” value is -1.21 ± 0.12.
On to “ACATTTGTTGATACAACCATAAAATGATAATTTGTGCCATAAATTGATAATTATCACACCCATAAATTGATATTGCCTCTGATCATAGTCAGACCAACATTGCTACGACCCGTATTCGCACCGACAC”, for which the “relative integration efficiency (log2)” value is -1.18 ± 0.14.
Turning to “ACATTTGTTGATACAACCATTAAATAATAATTCCACCCATAAATTGATAATTATCACACCCAATTTAACTATAACGCTCTGATCATAGTCAGACCAACATTGCTACGACCCGTATTCGCACCGACAC”, the “relative integration efficiency (log2)” value was found to be 1.55 ± 0.071.
With “ACATTTGTTGATACAACCATAAAATGATAATTACACCCATCCCGTGATAATTATCACACCCATAAATTGATATTGCCTCTGATCATAGTCAGACCAACATTGCTACGACCCGTATTCGCACCGACAC”, the “relative integration efficiency (log2)” value was -1.98 ± 0.74.
Turning to “ACATTTGTTGATACAACCATAAAATGATAATTAACACCCATAAATTGATAATTATCACACCCATAAATTGATATTGCCTCTGATCATAGTCAGACCAACATTGCTACGACCCGTATTCGCACCGACA”, the “relative integration efficiency (log2)” value was -0.437 ± 0.21.
